In patent US5908790A, “Methods for removing heavy metals from aqueous solutions and for analysis” (Behring Diagnostics GmbH, priority 1990, dated 1999):

Key:
Format in all cases: binding
[1] = system: EDTA-Pb; assay: Quantitative inhibition ELISA of mAB, competitor EDTA-Pb; conditions: solid phase Y benzyl-DTPA-HSA conjugate
Protocol: (§1) The ELISA comprised a solid phase which was loaded with a solution containing human serum albumin (HSA)-benzyl-DTPA. The supernatant which was to be tested and contained the mAB was preincubated with free complexone or the metal ion complex thereof, and its binding to the specific solid phase was measured. For this purpose, an enzyme amplification system which is coupled to an anti-mouse-immunoglobulin antibody was used. The details of this method are described in Examples 2 and 3.
(§2) The complexones DTPA and EDTA in noncomplexed and in complexed form (Example 4) were used as competitors. Additionally, the structurally related compounds transaconitic acid and 1,2-diaminoethane were used as inhibitors (see Tab. I). The excess amounts of competitor presented in Tab. […] These characteristics make it possible to use the mAB, e.g. coupled on filters or other solid supports, for removing both noncomplexed EDTA or DTPA and EDTA-metal ion or DTPA-metal ion complexes from liquids. Precipitation reactions of mAB-/EDTA-metal ion complexes are likewise suitable for removing the toxic metal ions.
(§3) Divisible 96-well polystyrene microtiter plates (U-shape) type B. supplied by Nunc, No. 4-60445 were employed as support material. The assay was carried out according to the following protocol. […]
(§4) (15) The extinctions are measured at 492 nm in the TITERTEK^R MULTISCAN. […]

[2] = system: DTPA-Cd; assay: Quantitative inhibition ELISA of mAB, competitor DTPA-Cd; conditions: solid phase Y benzyl-DTPA-HSA conjugate
Protocol: as §1, §2, §3, §4

[3] = system: EDTA-Cd; assay: Quantitative inhibition ELISA of mAB, competitor EDTA-Cd; conditions: solid phase Y benzyl-DTPA-HSA conjugate
Protocol: as §1, §2, §3, §4

[4] = system: EDTA-Mn; assay: Quantitative inhibition ELISA of mAB, competitor EDTA-Mn; conditions: solid phase Y benzyl-DTPA-HSA conjugate
Protocol: as §1, §2, §3, §4

[5] = Quantitative inhibition ELISA of mAB, competitor EDTA
Protocol: as §1, §2, §3, §4

[6] = system: DTPA-Pb; assay: Quantitative inhibition ELISA of mAB, competitor DTPA-Pb; conditions: solid phase Y benzyl-DTPA-HSA conjugate
Protocol: as §1, §2, §3, §4

[7] = Quantitative inhibition ELISA of mAB, competitor 1,2-diaminoethane; conditions: no inhibition up to the stated excess
Protocol: as §1, §2, §3, §4

[8] = Quantitative inhibition ELISA of mAB, competitor transaconitic acid; conditions: competitor trans-aconitic acid; no inhibition up to the stated excess
Protocol: as §1, §2, §3, §4

[9] = system: EDTA-Zn; assay: Quantitative inhibition ELISA of mAB, competitor EDTA-Zn; conditions: solid phase Y benzyl-DTPA-HSA conjugate
Protocol: as §1, §2, §3, §4

[10] = system: DTPA-Cu; assay: Quantitative inhibition ELISA of mAB, competitor DTPA-Cu; conditions: solid phase Y benzyl-DTPA-HSA conjugate
Protocol: as §1, §2, §3, §4

[11] = system: EDTA-Y; assay: Quantitative inhibition ELISA of mAB, competitor EDTA-Y; conditions: solid phase Y benzyl-DTPA-HSA conjugate
Protocol: as §1, §2, §3, §4

[12] = system: DTPA-Y; assay: Quantitative inhibition ELISA of mAB, competitor DTPA-Y; conditions: solid phase Y benzyl-DTPA-HSA conjugate
Protocol: as §1, §2, §3, §4

[13] = Quantitative inhibition ELISA of mAB, competitor DTPA; conditions: competitor DTPA (noncomplexed); solid phase Y benzyl-DTPA-HSA conjugate
Protocol: as §1, §2, §3, §4

[14] = system: DTPA-Mn; assay: Quantitative inhibition ELISA of mAB, competitor DTPA-Mn; conditions: solid phase Y benzyl-DTPA-HSA conjugate
Protocol: as §1, §2, §3, §4

[15] = system: DTPA-Zn; assay: Quantitative inhibition ELISA of mAB, competitor DTPA-Zn; conditions: solid phase Y benzyl-DTPA-HSA conjugate
Protocol: as §1, §2, §3, §4

[16] = system: EDTA-Cu; assay: Quantitative inhibition ELISA of mAB, competitor EDTA-Cu; conditions: solid phase Y benzyl-DTPA-HSA conjugate
Protocol: as §1, §2, §3, §4

B1: mAB 2050/535: particularly suitable anti-EDTA/DTPA monoclonal antibody; VL and VH sequences in SEQ ID NO:1-4 (antibody, V domains shown)
VH: LQQSGAELVKPGASVKLSCTSGLNIKDTYINWVKQRPEQGLEWIGRIGPANGNTKYDPKFQGKATLTADTSSNTAYLQLSSLTSEDTAVYYCSRRWFFLYWGQGTTVT
VL: QLTQESALTTSPGETVTLTCRSSTGAVTTSNYATWVQEKPDHLFTGLIGGTKNRAPGVPARFSGSLIGDKAALTITGAQTEDEAIYFCALWYSNHWVFGGGTKLKI
Molar excess of competitor, which leads to 50% inhibition of binding to the solid phase antigen [1]: 10^2
Molar excess of competitor, which leads to 50% inhibition of binding to the solid phase antigen [2]: 10^2
Molar excess of competitor, which leads to 50% inhibition of binding to the solid phase antigen [3]: 10^2
Molar excess of competitor, which leads to 50% inhibition of binding to the solid phase antigen [4]: 10^2
Molar excess of competitor, which leads to 50% inhibition of binding to the solid phase antigen ([5]; competitor EDTA (noncomplexed), solid phase Y benzyl-DTPA-HSA conjugate): 10^2
interaction with EDTA and the complexes thereof ([5]; statement in words, EDTA and its metal complexes): particularly strong
Molar excess of competitor, which leads to 50% inhibition of binding to the solid phase antigen [6]: 10^3
Molar excess of competitor, which leads to 50% inhibition of binding to the solid phase antigen [7]: > 10^5
Molar excess of competitor, which leads to 50% inhibition of binding to the solid phase antigen [8]: > 10^5
Molar excess of competitor, which leads to 50% inhibition of binding to the solid phase antigen [9]: 10^2
Molar excess of competitor, which leads to 50% inhibition of binding to the solid phase antigen [10]: 10^3
Molar excess of competitor, which leads to 50% inhibition of binding to the solid phase antigen [11]: 10^2
Molar excess of competitor, which leads to 50% inhibition of binding to the solid phase antigen [12]: 10^4
Molar excess of competitor, which leads to 50% inhibition of binding to the solid phase antigen [13]: 10^2
Molar excess of competitor, which leads to 50% inhibition of binding to the solid phase antigen [14]: 10^2
Molar excess of competitor, which leads to 50% inhibition of binding to the solid phase antigen [15]: 10^3
Molar excess of competitor, which leads to 50% inhibition of binding to the solid phase antigen [16]: 10^2
